Patent US20190241648A1 (STATEN BIOTECHNOLOGY B V, published 2019)
Ends that are not written are not given here.

Tests used:
Test in all cases: peptide microarray
ApoC3 peptide … D66F = target: T1, ApoC3 peptide … D66F (human, not fully specified (bridges); also: cyclic constrained)
T1 peptide: DKFSEFWFLDPEV
Method in brief: (§1)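 ApoC3 peptide microarrays incubated with antibody samples and then stained with goat anti-human IgG (Fc) DyLight680 plus anti-HA DyLight800 control antibody. Scanned at intensity 7/7 (red/green); a secondary-only prestain checked for background, and framing HA peptides served as quality control.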

ApoC3 peptide … S62G = ApoC3 peptide … S62G (human, cyclic constrained)
Method in brief: as §1

ApoC3 peptide … F64Q = target: T2, ApoC3 peptide … F64Q (human, not fully specified (bridges); also: cyclic constrained)
T2 peptide: DKFSEQWDLDPEV
Method in brief: as §1

ApoC3 peptide … S62L = ApoC3 peptide … S62L (human, cyclic constrained)
Method in brief: as §1

ApoC3 peptide … F64K = target: T3, ApoC3 peptide … F64K (human, not fully specified (bridges); also: cyclic constrained)
T3 peptide: DKFSEKWDLDPEV
Method in brief: as §1

ApoC3 peptide … P69V = ApoC3 peptide … P69V (human, cyclic constrained)
Method in brief: as §1

ApoC3 peptide … D68R = target: T4, ApoC3 peptide … D68R (human, cyclic constrained)
T4 peptide: DKFSEFWDLRPEV
Method in brief: as §1

ApoC3 peptide … P69F = target: T5, ApoC3 peptide … P69F (human, not fully specified (bridges); also: cyclic constrained)
T5 peptide: DKFSEFWDLDFEV
Method in brief: as §1

ApoC3 peptide … W65V = target: T6, ApoC3 peptide … W65V (human, not fully specified (bridges); also: cyclic constrained, ring type and places not given here)
T6 peptide: DKFSEFVDLDPEV
Method in brief: as §1

ApoC3 peptide … E70G = target: T7, ApoC3 peptide … E70G (human, not fully specified (bridges); also: cyclic constrained)
T7 peptide: DKFSEFWDLDPGV
Method in brief: as §1

ApoC3 peptide … L67W = target: T8, ApoC3 peptide … L67W (human, not fully specified (bridges); also: cyclic constrained)
T8 peptide: DKFSEFWDWDPEV
Method in brief: as §1

ApoC3 peptide … P69S = ApoC3 peptide … P69S (human, cyclic constrained)
Method in brief: as §1

ApoC3 peptide … S62D = ApoC3 peptide … S62D (human, cyclic constrained)
Method in brief: as §1

ApoC3 peptide … W65M = target: T9, ApoC3 peptide … W65M (human, not fully specified (bridges); also: cyclic constrained, ring type and places not given here)
T9 peptide: DKFSEFMDLDPEV
Method in brief: as §1

ApoC3 peptide … W65D = ApoC3 peptide … W65D (human, cyclic constrained)
Method in brief: as §1

ApoC3 peptide … F64G = target: T10, ApoC3 peptide … F64G (human, not fully specified (bridges); also: cyclic constrained)
T10 peptide: DKFSEGWDLDPEV
Method in brief: as §1

ApoC3 peptide … D68M = target: T11, ApoC3 peptide … D68M (human, cyclic constrained)
T11 peptide: DKFSEFWDLMPEV
Method in brief: as §1

ApoC3 peptide … L67V = target: T12, ApoC3 peptide … L67V (human, not fully specified (bridges); also: cyclic constrained)
T12 peptide: DKFSEFWDVDPEV
Method in brief: as §1

ApoC3 peptide … K60W = target: T13, ApoC3 peptide … K60W (human, not fully specified (bridges); also: cyclic constrained)
T13 peptide: DWFSEFWDLDPEV
Method in brief: as §1

ApoC3 peptide … V71E = ApoC3 peptide … V71E (human, cyclic constrained)
Method in brief: as §1

ApoC3 peptide … S62N = ApoC3 peptide … S62N (human, cyclic constrained)
Method in brief: as §1

ApoC3 peptide … D59P = target: T14, ApoC3 peptide … D59P (human, cyclic constrained)
T14 peptide: PKFSEFWDLDPEV
Method in brief: as §1

ApoC3 peptide … W65R = target: T15, ApoC3 peptide … W65R (human, not fully specified (bridges); also: cyclic constrained, ring type and places not given here)
T15 peptide: DKFSEFRDLDPEV
Method in brief: as §1

ApoC3 peptide … L67K = target: T16, ApoC3 peptide … L67K (human, not fully specified (bridges); also: cyclic constrained)
T16 peptide: DKFSEFWDKDPEV
Method in brief: as §1

ApoC3 peptide … D59F = target: T17, ApoC3 peptide … D59F (human, not fully specified (bridges); also: cyclic constrained)
T17 peptide: FKFSEFWDLDPEV
Method in brief: as §1

ApoC3 peptide … E63I = ApoC3 peptide … E63I (human, cyclic constrained)
Method in brief: as §1

ApoC3 peptide … P69A = target: T18, ApoC3 peptide … P69A (human, not fully specified (bridges); also: cyclic constrained)
T18 peptide: DKFSEFWDLDAEV
Method in brief: as §1

ApoC3 peptide … S62M = ApoC3 peptide … S62M (human, cyclic constrained)
Method in brief: as §1

ApoC3 peptide … K60A = target: T19, ApoC3 peptide … K60A (human, not fully specified (bridges); also: cyclic constrained)
T19 peptide: DAFSEFWDLDPEV
Method in brief: as §1

ApoC3 peptide … E70I = target: T20, ApoC3 peptide … E70I (human, not fully specified (bridges); also: cyclic constrained)
T20 peptide: DKFSEFWDLDPIV
Method in brief: as §1

ApoC3 peptide … K60M = target: T21, ApoC3 peptide … K60M (human, not fully specified (bridges); also: cyclic constrained)
T21 peptide: DMFSEFWDLDPEV
Method in brief: as §1

ApoC3 peptide … D66N = target: T22, ApoC3 peptide … D66N (human, not fully specified (bridges); also: cyclic constrained)
T22 peptide: DKFSEFWNLDPEV
Method in brief: as §1

ApoC3 peptide … E70P = target: T23, ApoC3 peptide … E70P (human, not fully specified (bridges); also: cyclic constrained)
T23 peptide: DKFSEFWDLDPPV
Method in brief: as §1

ApoC3 peptide … P69R = ApoC3 peptide … P69R (human, cyclic constrained)
Method in brief: as §1

ApoC3 peptide … D68E = target: T24, ApoC3 peptide … D68E (human, cyclic constrained)
T24 peptide: DKFSEFWDLEPEV
Method in brief: as §1

ApoC3 peptide … E63L = ApoC3 peptide … E63L (human, cyclic constrained)
Method in brief: as §1

ApoC3 peptide … P69T = ApoC3 peptide … P69T (human, cyclic constrained)
Method in brief: as §1

% of binding to wild-type peptide (ApoC3 peptide … D66F): 7.27% | % of binding to wild-type peptide (ApoC3 peptide … S62G): 53.9% | % of binding to wild-type peptide (ApoC3 peptide … F64Q): 133% | % of binding to wild-type peptide (ApoC3 peptide … S62L): 81% | % of binding to wild-type peptide (ApoC3 peptide … F64K): 107% | % of binding to wild-type peptide (ApoC3 peptide … P69V): 68.3% | % of binding to wild-type peptide (ApoC3 peptide … D68R): 0.66% | % of binding to wild-type peptide (ApoC3 peptide … P69F): 97.7% | % of binding to wild-type peptide (ApoC3 peptide … W65V): 24% | % of binding to wild-type peptide (ApoC3 peptide … E70G): 1.26% | % of binding to wild-type peptide (ApoC3 peptide … L67W): 1.26% | % of binding to wild-type peptide (ApoC3 peptide … P69S): 75.6% | % of binding to wild-type peptide (ApoC3 peptide … S62D): 35% | % of binding to wild-type peptide (ApoC3 peptide … W65M): 19.1% | % of binding to wild-type peptide (ApoC3 peptide … W65D): 130% | % of binding to wild-type peptide (ApoC3 peptide … F64G): 168% | % of binding to wild-type peptide (ApoC3 peptide … D68M): 0% | % of binding to wild-type peptide (ApoC3 peptide … L67V): 56.5% | % of binding to wild-type peptide (ApoC3 peptide … K60W): 78.6% | % of binding to wild-type peptide (ApoC3 peptide … V71E): 228% | % of binding to wild-type peptide (ApoC3 peptide … S62N): 126% | % of binding to wild-type peptide (ApoC3 peptide … D59P): 107% | % of binding to wild-type peptide (ApoC3 peptide … W65R): 7.71% | % of binding to wild-type peptide (ApoC3 peptide … L67K): 25.8% | % of binding to wild-type peptide (ApoC3 peptide … D59F): 61.5% | % of binding to wild-type peptide (ApoC3 peptide … E63I): 8.76% | % of binding to wild-type peptide (ApoC3 peptide … P69A): 57.4% | % of binding to wild-type peptide (ApoC3 peptide … S62M): 63.5% | % of binding to wild-type peptide (ApoC3 peptide … K60A): 120% | % of binding to wild-type peptide (ApoC3 peptide … E70I): 1.59% | % of binding to wild-type peptide (ApoC3 peptide … K60M): 146% | % of binding to wild-type peptide (ApoC3 peptide … D66N): 0% | % of binding to wild-type peptide (ApoC3 peptide … E70P): 2.53% | % of binding to wild-type peptide (ApoC3 peptide … P69R): 17.4% | % of binding to wild-type peptide (ApoC3 peptide … D68E): 56.9% | % of binding to wild-type peptide (ApoC3 peptide … E63L): 10.1% | % of binding to wild-type peptide (ApoC3 peptide … P69T): 118%
B1: anti-ApoC3 antibody 6A6 (antibody, V domains shown)
VH: EVQLVESGGGLVQPGGSLRLSCAASGFTFSSYAGRWVRQVPGKGLEWVSSINAGGGSTSYADSVKGRFTISRDNAKNTLYLQMNSLKPEDTAKYYCTQNSYRYWGQGTRVAVSS
VL: DVVLTQTPGSLSVVPGESASISCKASQSLIHTDGKTYLYWLLQKPGQRPQLLIYQVSSHESGVPDRFTGSGSGTDFTLKISGVKAEDAGVYYCAQATYNPRTFGQGTKLEIK
notes: it was detected with goat anti-human IgG (Fc); also called mAb 6A6; llama antibody 6A6
